The values that follow come from article PMC11686114 (Frontiers in Immunology, 2024).

Where a chain is given by its changes, count along the chain named. Ends that are not written are not given here.

What all share (assay): ELISA; confirmatory monoclonal phage ELISA; antigens peptide alone, peptide-BSA, peptide-biotin; controls PBS, 10% BSA-PBS, PBS-streptavidin; phage dilution factors 1, 3, 9
Background: An ELISA detects its analyte on a solid surface through an enzyme-linked reagent.

Assay [1] concerns the target T1, TRBV5-1 antigenic peptide No. 1 (TQTPRYLIKTRGQQ), biotinylated (Homo sapiens, also: biotinylated (site not given here)).
T1 construct: short form of antigenic peptide No. 1 of the TRBV5-1 segment of the human TCR beta chain; probably held on streptavidin, since its control is PBS-streptavidin (surmise); also called Ag3; peptide-biotin; source: synthetic peptide (Proteogenix)
T1 chain: TQTPRYLIKTRGQQ
The conditions noted are these: one partner purified.

The target in assay [2] is T2, TRBV5-1 antigenic peptide No. 1 (TQTPRYLIKTRGQQ), peptide alone (Homo sapiens).
T2 construct: short form of antigenic peptide No. 1 of the TRBV5-1 segment of the human TCR beta chain; also called Ag1; Peptide N. 1; source: synthetic peptide (Proteogenix)
T2 chain: TQTPRYLIKTRGQQ
The note with it: one partner purified.

The target of assay [3] is T3, TRBV5-1 antigenic peptide No. 1 (…) conjugated to BSA (human).
T3 sequence (peptide): TQTPRYLIKTRGQQ

B1: scFv clone C10 (scFv, V domains shown)
VH: EVQLVQSGAEVKKPGSSVKVSCKASGGTFSSYAISWVRQAPGQGLEWMGGIIPIFGTANYAQKFQGRVTITADKSTSTAYMELSSLRSEDTAVYYCAREPLRGYSGYDFYYYGMDVWGQGTMVTVSS
VL: SYELTQPHSVSGSPGETVTISCAGSGGSIASNYVQWYQQRPGSAPTTLIYEDKVRPSGVPDRFSGSIDYSSDSASLTISGLKTEDEADYYCQSADSTSTYVFGTGTKVTVL
notes: tested as phage clone in the confirmatory monoclonal ELISA; source: phage display clone from the human naive scFv library LiAb-SFMAX (Proteogenix), amplified in E. coli TG1
As to B1, the “ELISA signal at phage dilution factor 1” value in assay [1] was 2.11; in assay [2] it was 1.19; in assay [3], 3.83. Also, the “ELISA signal at phage dilution factor 3” value came out at 1.72 in assay [1], 0.75 in assay [2] and 3.55 in assay [3]. The “ELISA signal at phage dilution factor 9” value turned out to be 1.62 in assay [1], 0.42 in assay [2] and 3.04 in assay [3].

B2: scFv clone A12 (scFv, V domains shown)
VH: QVQLQQWGAGLLKPSETLSLTCAVYGGSFSGYYWSWIRQPPGKGLEWIGEINHSGSTNYNPSLKSRVTISVDTSKNQFSLKLSSVTAADTAVYYCARWDLDYWGQGTLVTVSS
VL: EIVLTQSPLSLPVTLGQSASISCRSSQSLVHSDGNTYLNWFQQRPGQSPRRLIYQVSKRDSGVPDRFSGSGSGTDFTLRISRVEAEDVGFYYCMQGTHWPPITFGQGTRLEIK
notes: tested as phage clone in the confirmatory monoclonal ELISA; lead scFv from which the r-hIgG1 mAb was made; also called lead scFv; source: phage display clone from the human naive scFv library LiAb-SFMAX (Proteogenix), amplified in …
On to B2, for which the “ELISA signal at phage dilution factor 1” value in assay [1] was determined as 2.79; in assay [2] it was 0.99; in assay [3] it was 2.93. Moreover, the “ELISA signal at phage dilution factor 3” value came to 1.99 in assay [1], 0.33 in assay [2] and 1.82 in assay [3]. Also, the “ELISA signal at phage dilution factor 9” value in assay [1] came out at 1.22; in assay [2] it was 0.12; in assay [3], 0.78.

B3: scFv clone A8 (scFv, V domains shown)
VH: QVQLVQSGPEMKKAGASVRVSCKGSGYTFSSFDINWVRQVPGQGLEWMGWMNPDTGNTGLAQKFQGRVTMTRDTSIRTAYMELRSLRSDDTAVYYCARDAPRNGRGMDVWGQGTMVTVSS
VL: SYELTQPPSVSVSPGQTARITCSGDALPKQYAYWYQQKPGQAPVLVIYQDTKRPSGIPERFSGSSSGTTVTLTISGVQAEDEADYYCQSADSSGTYPVFGGGTKLTVL
notes: as for B1
For the molecule B3, in assay [1], the “ELISA signal at phage dilution factor 1” value is 2.09, the “ELISA signal at phage dilution factor 3” value came out at 2.06 and the “ELISA signal at phage dilution factor 9” value was determined as 2. Also, in assay [2], the “ELISA signal at phage dilution factor 1” value amounted to 0.94, the “ELISA signal at phage dilution factor 3” value stood at 0.37 and the “ELISA signal at phage dilution factor 9” value was found to be 0.14. In assay [3], this molecule came in with an ELISA signal at phage dilution factor 1 of 4.58, an ELISA signal at phage dilution factor 3 of 4.2 and an ELISA signal at phage dilution factor 9 of 4.14.

B4: scFv clone D5 (scFv, V domains shown)
VH: QVQLVQSGAEVKKPGASVKVSCKPSGYYFNGYDITWVRQAIGQGLEWMGWMNPNSGNRDYAHQFQGRLTMTWDTSLSTAYLELNNLQSDDTAIYYCARERVSSGLDFWGQGTLVTVSS
VL: B3 VL with V46L, Q49K, T51S, K52E, P97V, K104Q
notes: as for B1
In the case of B4, in assay [1], the “ELISA signal at phage dilution factor 1” value is 2.38, the “ELISA signal at phage dilution factor 3” value was 1.9 and the “ELISA signal at phage dilution factor 9” value was determined as 1.67. Further, in assay [2], the “ELISA signal at phage dilution factor 1” value worked out at 0.75, the “ELISA signal at phage dilution factor 3” value is 0.32 and the “ELISA signal at phage dilution factor 9” value came out at 0.13. In assay [3], this molecule came in with an ELISA signal at phage dilution factor 1 of 4.03, an ELISA signal at phage dilution factor 3 of 3.56 and an ELISA signal at phage dilution factor 9 of 3.5.

B5: scFv clone A2 (scFv, V domains shown)
VH: QVQLQQSGPGLVKPSQTLSLTCAISGDSVSSNSAAWNWIRQSPSRGLEWLGRTYYRSKWYNDYAVSVKSRITINPDTSKNQFSLQLNSVTPEDTAVYYCARDQAAAEVYFDYWGQGTLVTVSS
VL: NFMLTQPHSVSESPGKTVTISCTRSSGSIASNYLQWYQQRPGSAPTTVIYEDNQRPSGVPDRFSGSIDSSSNSASLTISGLKTEDEADYYCQSYDNRNHWVFGGGTQLTVL
notes: as for B1
For the molecule B5, the “ELISA signal at phage dilution factor 1” value in assay [1] came to 2.46; in assay [2] it was 0.95; in assay [3], 4.3. The “ELISA signal at phage dilution factor 3” value in assay [1] turned out to be 1.85; in assay [2], 0.91; in assay [3], 4.04. Also, the “ELISA signal at phage dilution factor 9” value was 1.28 in assay [1], 0.35 in assay [2] and 3.84 in assay [3].

B6: scFv clone A5 (scFv, V domains shown)
VH: B5 VH
VL: B5 VL with L34V, A44S, N96S, R97S, Q107K, L108V
notes: as printed identical to the VH of A2; tested as phage clone in the confirmatory monoclonal ELISA; source: phage display clone from the human naive scFv library LiAb-SFMAX (Proteogenix), amplified in E. coli TG1
As for B6, in assay [1], the “ELISA signal at phage dilution factor 1” value came to 2.73, the “ELISA signal at phage dilution factor 3” value stood at 2.53 and the “ELISA signal at phage dilution factor 9” value came to 1.55. In addition, in assay [2], the “ELISA signal at phage dilution factor 1” value is 0.88, the “ELISA signal at phage dilution factor 3” value was 0.37 and the “ELISA signal at phage dilution factor 9” value is 0.11. In assay [3], this molecule came in with an ELISA signal at phage dilution factor 1 of 4.09, an ELISA signal at phage dilution factor 3 of 3.8 and an ELISA signal at phage dilution factor 9 of 3.74.
